In experiment [1] the target is monomeric full length gp120 of BaL isolate (HIV-1 isolate BaL). The experiment is described as follows: SPR, mAb immobilised, 1:1 Langmuir. On the technique in general: SPR reads the build-up and loss of mass on a sensor chip optically.
Experiment [2] deals with single-chain gp120BaL-sCD4 complex (FLSC) (HIV-1 isolate BaL) (UniProt P01730). The experiment is described as follows: SPR, mAb immobilised, 1:1 Langmuir.
The target is the same in experiment [3]. The experiment is described as follows: isothermal titration calorimetry, A32 IgG. (Isothermal titration calorimetry measures the heat released or taken up as one component is titrated into another.)

As to mAb 2.2c (antibody), in experiment [1], the Kd came to 12 nM, the koff is 0.000875 s⁻¹ and the kon was 73000 M⁻¹ s⁻¹. In experiment [2], this substance returned an equilibrium dissociation constant (Kd) of 0.5 nM; a fold change of KD, FLSC relative to gp120BaL of 24 fold; a fold change of ka, FLSC relative to gp120BaL of 15.7 fold; a fold change of kd, FLSC relative to gp120BaL of 1.6 fold. In experiment [2], the off-rate constant (koff) was determined as 0.000556 s⁻¹ and the kon amounted to 1.15e+06 M⁻¹ s⁻¹.

For mAb A32 (antibody), in experiment [1], the Kd worked out at 3.2 nM, the koff is 0.000437 s⁻¹ and the on-rate constant (kon) came to 139000 M⁻¹ s⁻¹. In experiment [2], this substance displayed a Kd of 0.23 nM; a fold change of KD, FLSC relative to gp120BaL of 13.9 fold; a fold change of ka, FLSC relative to gp120BaL of 3.2 fold; a fold change of kd, FLSC relative to gp120BaL of 4.3 fold. Moreover, in experiment [2], the koff came to 0.000102 s⁻¹ and the kon came out at 443000 M⁻¹ s⁻¹. Moreover, in experiment [3], the Kd turned out to be 11.5 nM and the ΔH is -3.15 kcal/mol.

In experiment [1], mAb JR4 (antibody) displayed a dissociation constant (Kd) of 2.34 nM, a dissociation rate constant (koff) of 0.000611 s⁻¹ and a kon of 262000 M⁻¹ s⁻¹. In experiment [2], the equilibrium dissociation constant (Kd) was determined as 0.18 nM; the fold change of KD, FLSC relative to gp120BaL amounted to 13 fold; the fold change of ka, FLSC relative to gp120BaL was found to be 2.5 fold; the fold change of kd, FLSC relative to gp120BaL stood at 5.3 fold. In experiment [2], this substance yielded an off-rate constant (koff) of 0.000116 s⁻¹ and an on-rate (kon) of 643000 M⁻¹ s⁻¹.

In experiment [1], mAb N5-i5 (antibody) returned a Kd of 5.03 nM, a koff of 0.00036 s⁻¹ and a kon of 72000 M⁻¹ s⁻¹. In experiment [2], this substance registered a dissociation constant Kd of 0.29 nM; a fold change of KD, FLSC relative to gp120BaL of 17.3 fold; a fold change of ka, FLSC relative to gp120BaL of 11.5 fold; a fold change of kd, FLSC relative to gp120BaL of 1.5 fold. In experiment [2], this substance displayed an off-rate constant (koff) of 0.000238 s⁻¹ and an on-rate constant (kon) of 825000 M⁻¹ s⁻¹.

In experiment [1], mAb N60-i3 (antibody) gave a Kd of 2.03 nM, an off-rate (koff) of 0.000512 s⁻¹ and an on-rate (kon) of 253000 M⁻¹ s⁻¹. In experiment [2], the dissociation constant (Kd) was 0.25 nM; the fold change of KD, FLSC relative to gp120BaL stood at 8 fold; the fold change of ka, FLSC relative to gp120BaL was 4.9 fold; the fold change of kd, FLSC relative to gp120BaL was determined as 1.6 fold. In experiment [2], this substance yielded a koff of 0.000314 s⁻¹ and a kon of 1.24e+06 M⁻¹ s⁻¹.

One may read the Kd as the equilibrium constant for the complex coming apart. A high value points to lower affinity. Broadly, the koff is a measure of how fast the partners let go of each other. Read a high koff as a short-lived complex. The term kon denotes the second-order rate constant of association.

The values are drawn from patent US20170283486A1.
